# Results: publication PMC4838380 (Nucleic Acids Research, 2016)
# B1: Endonuclease MS from Thermococcus kodakarensis (TkoEndoMS), protein encoded by TK1898 (enzyme, UniProt Q5JER9 1-252, looked up)
# chain: MSKDKVTVITSPSTEELVSLVNSALLEEAMLTIFARCKVHYDGRAKSELGSGDRVIIVKPDGSFLIHQSKKREPVNWQPPGSRVRLELRENPVLVSIRRKPRETLEVELEEVYMVSVFRAEDYEELALTGSEAEMAELIFENPEVIEPGFKPLFREKAIGTGIVDVLGRDSDGNIVVLELKRRRAELHAVRQLKSYVEILREEYGDKVRGILVAPSLTSGAKRLLEKEGLEFRKLEPPKRDSKKKGRQKTLF
# Biological target: the molecule itself
# Test: SEC
protein,measurement,value
B1,stoichiometry N,2
